Measured values reported in publication PMC4666388.

Target: GST-HP1α (full-length human heterochromatin protein 1 α with N-terminal GST) (human) (UniProt P45973)
Assay: pull-down; GST-HP1 anchored on GSH-Sepharose (80 pmol), 1.2 μg native oligo-nucleosomes from HeLa; absence of MgCl2; 50 mM NaCl, 20 mM Tris-HCl pH 7.4, room temperature 30 min; H3K9me3 and H4 detected by western blot

Chain of UniProt P45973 (P45973 whole entry): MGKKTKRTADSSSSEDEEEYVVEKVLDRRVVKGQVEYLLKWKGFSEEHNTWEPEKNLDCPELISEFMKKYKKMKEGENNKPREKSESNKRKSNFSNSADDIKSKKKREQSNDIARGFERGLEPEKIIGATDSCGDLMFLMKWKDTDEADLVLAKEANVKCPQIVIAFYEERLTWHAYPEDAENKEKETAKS

Q: “native oligo-nucleosomes prepared from HeLa cell nuclei (H3K9me3-nucleosomes detected) (complex)” was tested. Which percent of input bound did it give?
A: Its percent of input bound is 18 % of input.
